Here are results for 1 molecule from US20250215403A1, “Compositions and Methods for Cardiac Tissue Regeneration” (Temple University - Of The Commonwealth System Of Higher …, priority 2022, published 2025).

A short description of data set [1]: Mouse MI model: echocardiography of cardiac function 28 days post-MI. Type of data set: in vivo. Here is the method: In vivo transfection of modRNA was done as described previously in a recent method paper (Magadum A., et al., Circulation. 2020, 141 (15): 1249-1265; Sultana N., et al., Mol Ther, 2017, 25 (6): 1306-1315) using sucrose citrate buffer containing 10 μl of sucrose in nuclease-free water (0.3 g/ml), 10 μl of citrate (0.1M pH-7; Sigma) mixed with 10 μl of different concentrations of modRNA in saline to a total volume of 30 μl. Immediately after LAD ligation, mice received an intra-myocardial injection of modRNA (100 μg) in total volume of 30 μL at 3 different sites (mid-anterior×2 places and apical anterior) in the peri-infarct area (Magadum A., et al., Circulation. 2020, 141 (15): 1249-1265; Magadum, A., et al., 2021, Advanced Science, 9:2004661). For in vitro transfection, RNAiMAX transfection reagent (Life Technologies) was used according to manufacturer's recommendation (Magadum A., et al., Circulation. 2020, 141 (15): 1249-1265; Sultana N., et al., Mol Ther, 2017, 25 (6): 1306-1315).
All surgical and experimental procedures with mice were performed in accordance with protocols approved by Institutional Animal Care and Use Committees at Temple University Animal Care and Use Committee (IACUC). C57BL6 or CM-specific MADM mice (8-12-weeks-old) were anesthetized with isoflurane. MI was induced by permanent ligation of the LAD, as previously described (Garikipati, V. N. S., et al., 2019, Nature Communications, 10:4317). Briefly, the left thoracic region was shaved and sterilized. After intubation, the heart was exposed through a left thoracotomy. A suture was placed to ligate the LAD. The thoracotomy and skin were sutured closed in layers. Excess air was removed from the thoracic cavity, and the mouse was removed from ventilation when normal breathing was established. In order to determine the effect of modRNA on cardiovascular outcome after MI, modRNAs (100 μg/heart) were injected into the infarct zone immediately after LAD ligation (Magadum A., et al., Circulation. 2020, 141 (15): 1249-1265). For examination of heart histology, hearts were collected at the end of each study, quickly washed in PBS, weighed, and fixed in 4% PFA for cryo-sectioning and immunostainings. In all experiments, the surgeon was blinded to the treatment group. For assessment of heart histology, hearts were collected at the end of each study. The hearts were excised, briefly washed in PBS, perfused with perfusion buffer, weighed and fixed in 4% PFA at 4° C. overnight. The heart blocks were transverse sectioned at 6-8 μm using cryostat. The heart sections were further processed for histological evaluation using immunostaining (see below) or histological scar staining using Masson's trichrome staining kit (Sigma) according to standard procedures. Measuring the ratio of heart weight to body weight was done using a scale. This ratio was calculated as the heart tissue weight relative to the mouse total body weight in grams (g).
Mice underwent surgery to ligate the left anterior descending coronary artery as reported previously, followed by intramyocardial administration of exosomes or EVs (1×10^9) from hiPSC cells and IMR-90 cells suspended in PBS into the left ventricular wall (border zone) at two different locations and at the heart apex at one location immediately after left anterior descending ligation (Yue, Y., et al., 2020, Circulation Research, 126:315-329). The saline group underwent the same surgery but received saline without exosomes. Tissue was harvested at 7- or 28-days post-MI for histological analysis.

A further data set concerns PSAT1. Kind of data set: PSAT1 protein expression in NRVM after modRNA transfection. The data set is classed as cell-based, rat. The settings on record: in vitro modRNA transfection.
A short description of data set [2]: Long-term survival of mice post-MI. Type of data set: in vivo, mouse. The settings on record: Luc vs PSAT1 modRNA. Here is the method: All animal procedures were performed under protocols approved by the Temple University Animal Care and Use Committee. Male and female C57BL6 mice were used. Different modRNAs (100 μg/heart) were injected directly into the myocardium in open chest surgery. Three to ten animals used for each experiment. For mice survival, C57BL6 mice (10-12-weeks-old) treated with Luc or PSAT1 modRNAs (n=10) post induction of MI and were followed for the indicated time. Deaths were monitored and documented over time. Tamoxifen-inducible CM-restricted MADM mice (α-MHC-MADM mice) mice were generated by crossing MADM mice (Jackson laboratory) to […].^Tg(Myh6-cre/Esr1*) 1Jmk/J (Cat no. 005657) mice to get α-MHC-MADM mice (Yuko, A. E., et al., 2021, Redox Biology, 47:102162). Tamoxifen (Sigma-Aldrich) was dissolved in sesame oil at 10 mg/ml as stock solution. To induce Cre activation, tamoxifen was administered to mice by intraperitoneal (IP) injection five times (48 h interval between administrations) at 40 mg/kg body weight for adult mice (Yuko, A. E., et al., 2021, Redox Biology, 47:102162). The tissues were harvested at mentioned time for analysis.

Another data set deals with NRVM. In words: TUNEL apoptosis of NRVMs under hypoxic conditions. The settings on record: hypoxic conditions for 24 hours; agent alone. The data set is classed as cell-based, rat.

B1: PSAT1 modRNA: modified mRNA with N1-methylpseudouridine, transcribed in vitro, encoding phosphoserine aminotransferase 1 (ORF SEQ ID NO: 1, RNA SEQ ID NO: 2) (nucleic acid)
chain: AUGGAAGCCACCAAGCAAGUGGUUAACUUUGGGCCCGGGCCUGCCAAGCUGCCACACUCGGUAUUGUUGGAGAUCCAGAAGCAGCUACUAGACUACAGAGGACUCGGCAUCAGUGUGCUCGAAAUGAGUCACAGGUCAUCAGAUUUUGCCAAGAUUAUUGGCAAUACAGAGAAUCUUGUGAGGGAAUUGCUAGCUGUUCCCAACAACUACAAGGUGAUCUUUGUACAAGGAGGUGGGUCUGGCCAGUUCAGUGCUGUCCCCUUAAAUCUGAUUGGCCUGAAAGCUGGAAGGAGUGCUGACUACGUGGUGACCGGAGCUUGGUCAGCUAAGGCUGCGGAAGAAGCCAAGAAGUUUGGAACGGUGAACAUUGUCCACCCUAAACUUGGAAGUUACACAAAAAUUCCAGACCCAAGCACCUGGAACCUCAACCCGGACGCCUCCUAUGUAUACUUCUGUGCAAACGAGACUGUGCACGGGGUGGAGUUUGACUUCGUACCUGACGUCAAGGGAGCGGUGCUGGUCUGUGACAUGUCCUCAAACUUCUUAUCCAGGCCGGUGGAUGUUUCCAAGUUUGGUGUGAUUUUCGCUGGUGCUCAGAAGAAUGUUGGCUCUGCCGGGGUGACGGUGGUGAUUGUCCGGGAUGACCUGCUGGGGUUCUCGCUCAGAGAGUGCCCAUCAGUCCUUGACUACAAAGUGCAGGCUGGGAACAACUCUUUGUAUAACACACCUCCGUGCUUCAGCAUCUACGUCAUGGGCAUGGUCCUGGAAUGGAUCAAGAACAACGGCGGGGCCGCAGCCAUGGAGAAGCUCAGCUCCAUCAAAUCCCAAAUGAUUUAUGAGAUCAUUGAUAAUUCUCAAGGAUUUUAUGUAUGCCCAGUGGAGCGCCAGAAUAGAAGCAGGAUGAACAUCCCAUUUCGCAUUGGCAACGCCAAAGGAGACGAAGCUUUGGAAAAGCGGUUUCUUGACAAGGCGGUAGAACUCAACAUGAUCUCCUUGAAGGGGCACAGGUCAGUGGGAGGCAUUCGUGCCUCUCUGUAUAACGCUGUCACAACCGAAGACGUUGAGAAGCUGGCGGCCUUCAUGAAGAAUUUCUUGGAGAUGCAUCAGCUGUGA
modifications: N1-methylpseudouridine
For B1, in data set [1], the “LV end-diastolic posterior wall thickness” value is “significantly increased” and the “LV end-systolic posterior wall thickness” value is “significantly increased”. The “Fractional Shortening (% FS)” value in data set [1] (compared to Luc) is listed as “significantly improved”. Further, in data set [1] (compared to control), the “LVIDd (left ventricular internal diameter end-diastole)” value is “Improvements” and the “LVIDs (left ventricular internal diameter end-systole)” value is “Improvements”. Besides, the “Ejection Fraction (% EF)” value in data set [1] (myocardial delivery, compared to Luc) is reported as “significantly improved”. In the data set on PSAT1, the “PSAT1 protein expression in NRVM (onset and duration)” value is “achieved within hours of administration and lasted up to several days”. The mice survival entry in data set [2] is on record as “significantly improved”. Also, the “NRVM / CM apoptosis (TUNEL+ CMs)” value in the data set with NRVM is reported as “significantly inhibited”.
